Experimental findings from publication PMC5987255 (Molecular cell, 2018) are described below.

B2: mouse core RAG1 (aa 384-1008), E962Q mutant (domain or fragment, UniProt P15919 384-1008, looked up)
chain: VHINKGGRPRQHLLSLTRRAQKHRLRELKIQVKEFADKEEGGDVKAVCLTLFLLALRARNEHRQADELEAIMQGRGSGLQPAVCLAIRVNTFLSCSQYHKMYRTVKAITGRQIFQPLHALRNAEKVLLPGYHPFEWQPPLKNVSSRTDVGIIDGLSGLASSVDEYPVDTIAKRFRYDSALVSALMDMEEDILEGMRSQDLDDYLNGPFTVVVKESCDGMGDVSEKHGSGPAVPEKAVRFSFTVMRITIEHGSQNVKVFEEPKPNSELCCKPLCLMLADESDHETLTAILSPLIAEREAMKSSELTLEMGGIPRTFKFIFRGTGYDEKLVREVEGLEASGSVYICTLCDTTRLEASQNLVFHSITRSHAENLQRYEVWRSNPYHESVEELRDRVKGVSAKPFIETVPSIDALHCDIGNAAEFYKIFQLEIGEVYKHPNASKEERKRWQATLDKHLRKRMNLKPIMRMNGNFARKLMTQETVDAVCELIPSEERHEALRELMDLYLKMKPVWRSSCPAKECPESLCQYSFNSQRFAELLSTKFKYRYEGKITNYFHKTLAHVPEIIERDGSIGAWASEGNQSGNKLFRRFRKMNARQSKCYEMEDVLKHHWLYTSKYLQKFMNAHNA

Series [1] has as its target B2. The series can be described thus: crystal structure.
The series “crystal structure” deals with the molecule itself. The series can be described thus: crystal structure.

B1: mouse core RAG2 (aa 1-359) (domain or fragment, UniProt P21784 1-359, looked up)
chain: MSLQMVTVGHNIALIQPGFSLMNFDGQVFFFGQKGWPKRSCPTGVFHFDIKQNHLKLKPAIFSKDSCYLPPLRYPATCSYKGSIDSDKHQYIIHGGKTPNNELSDKIYIMSVACKNNKKVTFRCTEKDLVGDVPEPRYGHSIDVVYSRGKSMGVLFGGRSYMPSTQRTTEKWNSVADCLPHVFLIDFEFGCATSYILPELQDGLSFHVSIARNDTVYILGGHSLASNIRPANLYRIRVDLPLGTPAVNCTVLPGGISVSSAILTQTNNDEFVIVGGYQLENQKRMVCSLVSLGDNTIEISEMETPDWTSDIKHSKIWFGSNMGNGTIFLGIPGDNKQAMSEAFYFYTLRCSEEDLSEDQ
Turning to B1, the binding result in series [1] is reported as “binds”.

For the molecule B2, the binding result in the series “crystal structure” is given as “binds”.
